Measured values from US20240132578A1.

Experiments:
Test in all cases: cell-based or functional assay
[1] = target: HIV-1 Env of pseudovirus MGRM-F1-020 (clade F) (HIV-1)
[2] = target: HIV-1 envelope glycoprotein (Env) of isolate MGRM-C-012 (HIV-1)
[3] = target: HIV-1 Env of isolate VLGCA1 (pseudovirus) (HIV-1)
[4] = target: HIV-1 Env of isolate MGRM-AE-002 (pseudovirus) (HIV-1)
[5] = target: HIV-1 Env of pseudovirus MGRM-F1-018 (clade F) (HIV-1)
[6] = target: HIV-1 Env of isolate 93RW029 (clade A pseudovirus) (HIV-1)
[7] = target: HIV-1 MGRM-AE-005 Env (pseudovirus) (HIV-1)
[8] = target: HIV-1 Env of isolate 94UG103 (clade A pseudovirus) (HIV-1)
[9] = target: HIV-1 Env of pseudovirus MGRM-G-014 (HIV-1)
[10] = target: HIV-1 MGRM-AE-003 Env (pseudovirus) (HIV-1)
[11] = target: HIV-1 envelope glycoprotein (Env) of isolate LAVI_C22 (HIV-1)
[12] = target: HIV-1 Env of isolate MGRM-A-005 (clade A pseudovirus) (HIV-1)
[13] = target: HIV-1 envelope glycoprotein (Env) of isolate MGRM-Chronic-B-008, on pseudovirus (HIV-1)
[14] = target: HIV-1 JR-CSF Env N411A (HIV-1 (isolate JR-CSF)) (UniProt P20871)
[15] = target: HIV-1 envelope glycoprotein (Env) of isolate 92WR009, subtype A (HIV-1)
[16] = target: HIV-1 envelope glycoprotein (Env) of isolate VLGCB3, on pseudovirus (HIV-1)
[17] = target: HIV-1 envelope glycoprotein (Env) of isolate MGRM-Chronic-B-001, on pseudovirus (HIV-1)
[18] = target: HIV-1 envelope glycoprotein (Env) of isolate 92WR024, subtype A (HIV-1)
[19] = target: HIV-1 JR-CSF Env E466A (HIV-1 (isolate JR-CSF)) (UniProt P20871)
[20] = target: HIV-1 JR-CSF Env I415A (HIV-1 (isolate JR-CSF)) (UniProt P20871)
[21] = target: HIV-1 Env of isolate MGRM-AG-009 (pseudovirus) (HIV-1)
[22] = target: HIV-1 envelope glycoprotein (Env) of isolate TRO.11, on pseudovirus (HIV-1)
[23] = target: HIV-1 JR-CSF Env K421A (HIV-1 (isolate JR-CSF)) (UniProt P20871)
HIV-1 CMU02 Env (HIV-1) = target: HIV-1 CMU02 Env (HIV-1)
[24] = target: HIV-1 Env of isolate MGRM-A-003 (pseudovirus) (HIV-1)
[25] = target: HIV-1 Env of isolate MGRM-D-021 (pseudovirus) (HIV-1)
[26] = target: HIV-1 Env of isolate MGRM-D-008 (pseudovirus) (HIV-1)
[27] = target: HIV-1 Env of isolate MGRM-D-022 (pseudovirus) (HIV-1)
[28] = target: HIV-1 Env of isolate MGRM-AG-005 (subtype AG) (HIV-1)
[29] = target: HIV-1 Env of isolate 94KE105 (subtype AC) (HIV-1)
[30] = target: HIV-1 Env of isolate CMU02 (subtype AE) (HIV-1)
[31] = target: HIV-1 Env of isolate MGRM-C-004 (HIV-1)
[32] = target: HIV-1 Env of isolate MGRM-AE-002 (subtype AE) (HIV-1)
[33] = target: HIV-1 Env of isolate MGRM-AE-007 (subtype AE) (HIV-1)
[34] = target: HIV-1 Env of isolate MGRM-A-013 (subtype A) (HIV-1)

Substance	IC50 [1] [µg/mL]	IC50 (µg/ml), pseudovirus neutralization [2] [µg/mL]	IC50 [5] [µg/mL]	IC50 (µg/ml), pseudovirus neutralization [6] [µg/mL]	IC50 (µg/ml), pseudovirus neutralization [7] [µg/mL]	IC50 (µg/ml), pseudovirus neutralization [8] [µg/mL]	IC50 (µg/ml), pseudovirus neutralization [9] [µg/mL]	IC50 (µg/ml), pseudovirus neutralization [10] [µg/mL]	IC50 (µg/ml), pseudovirus neutralization [11] [µg/mL]	IC50 (µg/ml), pseudovirus neutralization [12] [µg/mL]	IC50, pseudovirus neutralization [13] [µg/mL]	IC50, pseudovirus neutralization [15] [µg/mL]	IC50, pseudovirus neutralization [16] [µg/mL]	IC50, pseudovirus neutralization [17] [µg/mL]	IC50, pseudovirus neutralization [18] [µg/mL]	IC50 (µg/mL), pseudovirus neutralization [21] [µg/mL]	IC50, pseudovirus neutralization [22] [µg/mL]	other results
1496_C09 (PG9) (TCN-109) (antibody)	4.55	0.24	0.03	1.19	0.16	0.24	6.32	–	–	–	–	–	–	–	–	–	–	IC50 (µg/mL), pseudovirus neutralization [3]: 0.069 µg/mL; IC50 (µg/mL), pseudovirus neutralization [4]: 0.04 µg/mL
2F5 (antibody)	0.59	> 50	3.91	> 50	0.14	1.92	9.65	0.24	> 50	5.7	–	–	–	–	–	–	–	–
5145_B14 (PGT-127) (antibody)	–	–	–	–	–	–	–	–	–	–	21.5	> 50	0.022	> 50	> 50	0.059	0.079	Fold IC50 increase relative to wild-type (pseudovirus neutralization) [14]: 0.8 fold; Fold IC50 increase relative to wild-type (pseudovirus neutralization) [19]: 0.9 fold; Fold IC50 increase relative to wild-type (pseudovirus neutralization) [20]: 2.1 fold; Fold IC50 increase relative to wild-type (pseudovirus neutralization) [23]: 1.5 fold
1495_C14 (PGC14) (antibody)	> 50	> 50	> 50	42	> 50	> 50	> 50	> 50	25	> 50	–	–	–	–	–	–	–	–
5123_A06 (PGT-125) (antibody)	–	–	–	–	–	–	–	–	–	–	> 50	0.144	0.015	> 50	35.5	0.026	0.111	Fold IC50 increase relative to wild-type (pseudovirus neutralization) [14]: 0.5 fold; Fold IC50 increase relative to wild-type (pseudovirus neutralization) [19]: 1.6 fold; Fold IC50 increase relative to wild-type (pseudovirus neutralization) [20]: 0.3 fold; IC50, pseudovirus neutralization (HIV-1 CMU02 Env (HIV-1)): > 10 µg/mL; Fold IC50 increase relative to wild-type (pseudovirus neutralization) [23]: 1.2 fold
5141_B17 (PGT-126) (antibody)	–	–	–	–	–	–	–	–	–	–	5.89	> 50	0.007	> 50	42	0.03	0.041	Fold IC50 increase relative to wild-type (pseudovirus neutralization) [14]: 0.7 fold; Fold IC50 increase relative to wild-type (pseudovirus neutralization) [19]: 1.4 fold; Fold IC50 increase relative to wild-type (pseudovirus neutralization) [20]: 0.3 fold; IC50, pseudovirus neutralization (HIV-1 CMU02 Env (HIV-1)): > 10 µg/mL; Fold IC50 increase relative to wild-type (pseudovirus neutralization) [23]: 0.7 fold
5345_I01 (PGT-137) (antibody)	–	–	–	–	–	–	–	–	–	–	–	–	–	–	–	–	–	IC50 (µg/mL), pseudovirus neutralization [24]: > 50 µg/mL; IC50 (µg/mL), pseudovirus neutralization [25]: > 50 µg/mL; IC50 (µg/mL), pseudovirus neutralization [26]: > 50 µg/mL; IC50 (µg/mL), pseudovirus neutralization [27]: > 50 µg/mL; IC50, pseudovirus neutralization [28]: > 50 µg/mL; IC50, pseudovirus neutralization [29]: 18.5 µg/mL; IC50, pseudovirus neutralization [30]: > 50 µg/mL; IC50 (µg/mL), pseudovirus neutralization [31]: 0.026 µg/mL; IC50, pseudovirus neutralization [32]: > 50 µg/mL; IC50, pseudovirus neutralization [33]: > 50 µg/mL; IC50, pseudovirus neutralization [34]: 49.2 µg/mL
4858_P08 (PGT-123) (antibody)	–	–	–	–	–	–	–	–	–	–	0.01	15.7	0.004	0.15	> 50	0.073	0.008	Fold IC50 increase relative to wild-type (pseudovirus neutralization) [14]: 0.5 fold; Fold IC50 increase relative to wild-type (pseudovirus neutralization) [19]: 0.6 fold; Fold IC50 increase relative to wild-type (pseudovirus neutralization) [20]: 0.4 fold; IC50, pseudovirus neutralization (HIV-1 CMU02 Env (HIV-1)): > 10 µg/mL; Fold IC50 increase relative to wild-type (pseudovirus neutralization) [23]: 0.9 fold
4838_L06 (PGT-121) (antibody)	–	–	–	–	–	–	–	–	–	–	0.007	1.74	0.005	0.102	> 50	–	0.008	IC50, pseudovirus neutralization (HIV-1 CMU02 Env (HIV-1)): > 10 µg/mL
4877_D15 (PGT-122) (antibody)	–	–	–	–	–	–	–	–	–	–	0.017	42.4	0.008	0.138	> 50	0.128	0.011	IC50, pseudovirus neutralization (HIV-1 CMU02 Env (HIV-1)): > 10 µg/mL
5114_A19 (PGT-128) (antibody)	–	–	–	–	–	–	–	–	–	–	–	–	–	–	–	–	–	IC50 (µg/mL), pseudovirus neutralization [24]: > 50 µg/mL; Fold IC50 increase relative to wild-type (pseudovirus neutralization) [14]: 0.7 fold; IC50 (µg/mL), pseudovirus neutralization [25]: 0.014 µg/mL; IC50 (µg/mL), pseudovirus neutralization [26]: 0.033 µg/mL; IC50 (µg/mL), pseudovirus neutralization [27]: > 50 µg/mL; Fold IC50 increase relative to wild-type (pseudovirus neutralization) [19]: 0.6 fold; Fold IC50 increase relative to wild-type (pseudovirus neutralization) [20]: 0.7 fold; IC50, pseudovirus neutralization [28]: 0.037 µg/mL; IC50, pseudovirus neutralization [29]: 0.007 µg/mL; IC50, pseudovirus neutralization [30]: > 50 µg/mL; IC50 (µg/mL), pseudovirus neutralization [31]: 0.025 µg/mL; IC50, pseudovirus neutralization [32]: 0.522 µg/mL; IC50, pseudovirus neutralization [33]: > 50 µg/mL; Fold IC50 increase relative to wild-type (pseudovirus neutralization) [23]: 2 fold; IC50, pseudovirus neutralization [34]: 0.008 µg/mL
5329_C19 (PGT-136) (antibody)	–	–	–	–	–	–	–	–	–	–	–	–	–	–	–	–	–	IC50 (µg/mL), pseudovirus neutralization [24]: > 50 µg/mL; IC50 (µg/mL), pseudovirus neutralization [25]: > 50 µg/mL; IC50 (µg/mL), pseudovirus neutralization [26]: > 50 µg/mL; IC50 (µg/mL), pseudovirus neutralization [27]: > 50 µg/mL; IC50, pseudovirus neutralization [28]: > 50 µg/mL; IC50, pseudovirus neutralization [29]: > 50 µg/mL; IC50, pseudovirus neutralization [30]: > 50 µg/mL; IC50 (µg/mL), pseudovirus neutralization [31]: 0.034 µg/mL; IC50, pseudovirus neutralization [32]: > 50 µg/mL; IC50, pseudovirus neutralization [33]: > 50 µg/mL; IC50, pseudovirus neutralization [34]: > 50 µg/mL
1443_C16 (PG16) (TCN-116) (antibody)	4.35	0.48	0.01	3.83	0.02	0.04	6.98	0.03	0.02	0.09	–	–	–	–	–	–	–	–
4E10 (antibody)	0.66	0.44	3.6	15.5	0.47	4.97	13.7	0.34	2.02	4.09	–	–	–	–	–	–	–	–
2G12 (antibody)	> 50	> 50	> 50	> 50	> 50	48.1	> 50	> 50	> 50	> 50	–	–	–	–	–	–	–	–
PGV04 (antibody)	–	–	–	–	–	–	–	–	–	–	–	–	–	–	–	0.148	–	IC50 (µg/mL), pseudovirus neutralization [3]: 0.024 µg/mL; IC50 (µg/mL), pseudovirus neutralization [4]: 0.569 µg/mL
b12 (antibody)	> 50	> 50	> 50	> 50	0.63	6.92	> 50	> 50	7.64	3.64	–	–	–	–	–	–	–	–
